These results are taken from patent US20250034527A1 (Stanford University, published 2025).

The target of assay [1] is T1, Fzd7 CRD (human, UniProt O75084 44-163). The assay is described as follows: SPR, biotinylated Fzd CRD captured on SA chip, DFB as analyte; SPR, Fzd7. As to the method:
(§1) Second, individual DFB proteins were purified and surface Plasmon Resonance (SPR) used to measure the affinity between Fzd CRD with the DFB. The biotinylated Fzd CRD was captured on SA sensor chip at low density. A gradient concentration of DFB analyte was flown over the chip. The data was analyzed by BIACore accompanying software.
On the technique in general: SPR reads the build-up and loss of mass on a sensor chip optically.

Assay [2] addresses T1, Fzd7 CRD. Briefly: yeast surface display of DFB, titration with biotinylated Fzd CRD, flow cytometry; yeast titration, Fz7. The source says:
(§2) To understand the affinity of individual DFBs towards different Fzd CRDs, two different methods were used to measure the specificity and affinity. DFBs were expressed on yeast surface and the yeast stained with biotinylated Fzd CRDs. The cells were washed and Streptavidin, Alexa Fluor™ 647 conjugates were used to stain the yeasts. The fluorescence signals were read on flow cytometry.

For assay [3], the target named is T2, Fzd1 CRD (human, UniProt Q9UP38 111-230). Briefly: yeast surface display of DFB, titration with biotinylated Fzd CRD, flow cytometry; yeast titration, Fz1.
Text: as §2

Assay [4] concerns the target T3, Fzd8 CRD (human, UniProt Q9H461 30-151, limits assumed, biotinylated).
T3 construct: domain: CRD; Species 'human' comes from the specificity statements; also called Fz8; frizzled 8 cysteine rich domain
T3 sequence (looked up): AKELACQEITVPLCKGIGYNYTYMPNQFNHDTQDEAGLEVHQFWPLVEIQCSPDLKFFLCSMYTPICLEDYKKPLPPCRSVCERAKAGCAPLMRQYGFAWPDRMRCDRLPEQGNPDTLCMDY
Briefly: SPR, biotinylated Fzd CRD captured on SA chip, DFB as analyte; SPR, Fzd8. As to the method: as §1

Assay [5] concerns the target T1, Fzd7 CRD. The assay is described as follows: SPR: biotinylated Fzd7 CRD captured on an SA chip, 1AF34 as analyte, 63 nM down to 0.24 nM. The procedure:
as §1

Assay [6] concerns the target T4, Fzd2 CRD (human, UniProt Q14332 34-153). Briefly: yeast surface display of DFB, titration with biotinylated Fzd CRD, flow cytometry; yeast titration, Fz2.
Text: as §2
A general note: Flow cytometry measures light scatter and fluorescence of single cells or particles in a stream.

The target of assay [7] is T3, Fzd8 CRD. Briefly: SPR: biotinylated Fzd8 CRD captured on an SA chip, 1AF34F7 as analyte, 1 uM down to 0.24 nM. The procedure:
as §1

The target of assay [8] is T1, Fzd7 CRD. The assay is described as follows: SPR, biotinylated Fzd CRD captured on SA chip, DFB as analyte. The procedure:
as §1

For assay [9], the target named is T5, Fzd5 CRD (human, UniProt Q13467 28-150, limits assumed, biotinylated).
T5 construct: domain: CRD; Species 'human' comes from the specificity statements; also called Fz5; frizzled 5 cysteine rich domain
T5 sequence (looked up): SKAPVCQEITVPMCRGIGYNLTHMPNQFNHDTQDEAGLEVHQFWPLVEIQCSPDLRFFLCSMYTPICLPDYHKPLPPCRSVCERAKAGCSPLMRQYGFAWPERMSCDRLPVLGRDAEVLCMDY
Briefly: yeast surface display titration with biotinylated Fzd CRD, flow cytometry.

Assay [10] addresses T6, Fzd4 CRD (human, UniProt Q9ULV1 40-161, limits assumed, biotinylated).
T6 construct: domain: CRD; also called Fz4; frizzled 4 cysteine rich domain
T6 sequence (looked up): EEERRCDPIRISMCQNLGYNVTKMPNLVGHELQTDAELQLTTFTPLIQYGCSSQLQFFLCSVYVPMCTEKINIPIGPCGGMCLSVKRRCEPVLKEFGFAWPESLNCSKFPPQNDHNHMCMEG
The assay is described as follows: yeast surface display of ANK12, staining with biotinylated Fzd CRD and streptavidin-Alexa Fluor 647, flow cytometry.
Text: as §2

The target in assay [11] is T1, Fzd7 CRD. The assay is described as above.
Text: as §2

The target of assay [12] is T2, Fzd1 CRD. The assay is described as above.
Text: as §2

Assay [13] addresses T4, Fzd2 CRD. The assay is described as above.
Text: as §2

In assay [14] the target is T3, Fzd8 CRD. Briefly: SPR, biotinylated Fzd CRD captured on SA chip, DFB as analyte. As to the method: as §1
In assay [15] the target is T3, Fzd8 CRD. Briefly: yeast surface display of DFB, titration with biotinylated Fzd CRD, flow cytometry.
Text: as §2

The target in assay [16] is T5, Fzd5 CRD. The description is as above.
Text: as §2

The target of assay [17] is T6, Fzd4 CRD. Briefly: SPR, biotinylated Fzd CRD captured on SA chip, DFB as analyte. The procedure:
as §1

The target in assay [18] is T2, Fzd1 CRD. The assay is described as follows: yeast surface display of 4AF30, staining with biotinylated Fzd CRD and streptavidin-Alexa Fluor 647, flow cytometry.
Text: as §2

For assay [19], the target named is T4, Fzd2 CRD. The description is as above.
Text: as §2

Assay [20] concerns the target T5, Fzd5 CRD. The description is as above.
Text: as §2

Assay [21] addresses T6, Fzd4 CRD. The assay is described as follows: yeast surface display of DFB, titration with biotinylated Fzd CRD, flow cytometry.
Text: as §2

B1: 1AF34 (designed binder)
chain: SELGTRLIRAALDGNKDRVKDLIENGADVNASLMSGATPLHAAAMNGHKEVVKLLISKGADVNAQSVAGSTPLDAAAFSGHKEVVKLLISKGADVNAVNAAGLTPLHAAADNGHKEVVKLLISKGADVNAKADHGMTPLHFAAQRGHKEVVKLLISKGADLNTSAKDGATPLDMARESGNEEVVKLLEKQLE
notes: Engineered ankyrin-repeat protein; Display fusion and tags are not described; also called DFB
The Kd is the concentration at which binding is half-saturated. Read a low Kd as a tighter complex. As a reminder, the EC50 is the concentration giving half of the maximal effect. The low end stands for a more potent agent, the high end for a less potent agent. For B1, the Kd in the assay with Fzd7 CRD [1] worked out at 1 nM; with Fzd8 CRD [4], 23 nM; in the assay with Fzd7 CRD [5], 1.3 nM. Besides, the EC50 came to 5.6 nM with Fzd7 CRD [2], 19 nM with Fzd1 CRD [3] and 31.6 nM with Fzd2 CRD [6].

B2: 1AF34F7 (designed binder)
chain: SELGTRLIRAALDGNKDRVKDLIENGADVNASLMSGATPLHAAAMNGHKEVVKLLISKGADVNAQSVAGSTPLDAAAFSGHKEVVKLLISKGADVNAVNAAGLTPLHDAADDGHNEVVKLLISKGADVNAKADHGMTPLHFAAQRGHKEVVKLLISKGADLNTSAKDGATPLDMARESGNEEVVKLLEKQLE
notes: as for B1
For the molecule B2, the EC50 with Fzd7 CRD [2] turned out to be 1.8 nM; with Fzd1 CRD [3], 7.5 nM; in the assay with Fzd2 CRD [6] it was 9.9 nM. Moreover, the Kd was found to be 2600 nM with Fzd8 CRD [7] and 1.6 nM in the assay with Fzd7 CRD [8]. In the assay with Fzd5 CRD [9], the binding result is “no binding (tested: 1 µM)”.

B3: ANK12 (designed binder)
chain: SELGKRLIMAALDGNKDRVKDLIENGADVNASLVSGATPLHAAAMNGHKEVVKLLISKGADVNAQSAAGSTPLAAAAINGHKEVVKLLISKGADVNAVTAAGMTPLHAAAANGHKEVVKLLISKGADVNAKADRGMTPLHFAAWRGHKEVVKLLISKGADLNTSAKDGATPLDMARESGNEEVVKLLEKQLE
notes: as for B1
B3: the binding result with Fzd4 CRD [10], with Fzd7 CRD [11], with Fzd1 CRD [12] and with Fzd2 CRD [13] was “no binding (tested: 1000 nM)” each time. For the same molecule, the Kd with Fzd8 CRD [14] is 0.2 nM. The results for the EC50 in the assay with Fzd8 CRD [15] and in the assay with Fzd5 CRD [16] were 3.6 nM and 4.4 nM, respectively.

B4: 4AF30 (designed binder)
chain: SELGKRLIRAALDGNKDRVKDLIENGADVNASLMSGTTPLYAAAMNGHKEVVKLLISKGADVNAQSVAGSTPLVAAANFGHNEVVKLLISKGADVNAVTAFGVTPLHAAAADGHKEVVKLLISKGADVNAKAGRGMTPLHIAAFRGHKEVVKLLISKGADLNTSAKDGATPLDMARESGNEEVVKLLEKQLE
notes: as for B1
In the case of B4, the Kd was found to be 1.4 nM with Fzd4 CRD [17] and 400 nM in the assay with Fzd8 CRD [14]. Moreover, the binding result with Fzd1 CRD [18], in the assay with Fzd2 CRD [19] and with Fzd5 CRD [20] was “no binding (tested: 1000 nM)” in each case. The molecule also displayed a concentration for a half-maximal effect (EC50) with Fzd4 CRD [21] of 1.6 nM.
